T1: D1/D2/F/E/G pentamer (5Sm) (S. cerevisiae, UniProt Q02260 1-109; Q06217 1-110; P54999 1-86; Q12330 1-94; P40204 1-77)
T1 sequence (looked up) 1: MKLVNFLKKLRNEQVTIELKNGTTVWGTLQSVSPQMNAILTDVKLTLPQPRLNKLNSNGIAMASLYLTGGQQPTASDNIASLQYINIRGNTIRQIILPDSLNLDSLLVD
T1 sequence (looked up) 2: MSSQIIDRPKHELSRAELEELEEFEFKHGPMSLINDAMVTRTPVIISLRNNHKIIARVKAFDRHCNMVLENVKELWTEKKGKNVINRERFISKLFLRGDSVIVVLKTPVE
T1 sequence (looked up) 3: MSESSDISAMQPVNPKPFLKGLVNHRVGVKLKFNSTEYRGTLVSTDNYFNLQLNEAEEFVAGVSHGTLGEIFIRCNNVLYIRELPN
T1 sequence (looked up) 4: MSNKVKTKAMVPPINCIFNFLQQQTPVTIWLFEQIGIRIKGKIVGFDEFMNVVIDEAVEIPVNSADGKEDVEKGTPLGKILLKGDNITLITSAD
T1 sequence (looked up) 5: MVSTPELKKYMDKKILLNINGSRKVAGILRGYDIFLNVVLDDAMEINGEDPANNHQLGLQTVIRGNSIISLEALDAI

T2: Brr1Δ(122-197) with N-terminal HT-tag (S. cerevisiae, UniProt Q99177 1-341, Δ(122-197))
T2 sequence (looked up): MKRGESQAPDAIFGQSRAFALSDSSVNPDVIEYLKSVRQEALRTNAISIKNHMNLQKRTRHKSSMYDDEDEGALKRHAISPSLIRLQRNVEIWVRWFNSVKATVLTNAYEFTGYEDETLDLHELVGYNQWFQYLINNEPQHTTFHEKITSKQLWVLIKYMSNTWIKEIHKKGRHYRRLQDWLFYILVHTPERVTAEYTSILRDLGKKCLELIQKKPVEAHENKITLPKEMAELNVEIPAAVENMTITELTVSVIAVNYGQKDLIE

T3: full-length Lot5 with N-terminal HT-tag (S. cerevisiae, UniProt P34234 1-306)
T3 sequence (looked up): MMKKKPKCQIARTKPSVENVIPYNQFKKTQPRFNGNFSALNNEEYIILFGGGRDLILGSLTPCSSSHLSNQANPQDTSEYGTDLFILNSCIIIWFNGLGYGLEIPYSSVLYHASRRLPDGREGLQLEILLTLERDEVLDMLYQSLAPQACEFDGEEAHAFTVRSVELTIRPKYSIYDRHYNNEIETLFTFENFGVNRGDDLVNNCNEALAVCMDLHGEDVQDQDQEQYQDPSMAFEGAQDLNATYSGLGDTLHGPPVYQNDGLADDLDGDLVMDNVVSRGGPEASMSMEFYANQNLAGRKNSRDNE

B1: Brr1, full length, HT-tag removed (natural protein, S. cerevisiae, UniProt Q99177 1-341, looked up)
chain: MKRGESQAPDAIFGQSRAFALSDSSVNPDVIEYLKSVRQEALRTNAISIKNHMNLQKRTRHKSSMYDDEDEGALKRHAISPSLIRLQRNVEIWVRWFNSVKATVLTNAYEFTGYEDETLDLLLLFLKNYLEDMPSKCTTVEKIISVLNQHSFPEKAEEKEENLQIDEEWAKNILVRLEKTKIDSVEDVKKVITEGDKHELVGYNQWFQYLINNEPQHTTFHEKITSKQLWVLIKYMSNTWIKEIHKKGRHYRRLQDWLFYILVHTPERVTAEYTSILRDLGKKCLELIQKKPVEAHENKITLPKEMAELNVEIPAAVENMTITELTVSVIAVNYGQKDLIE
B2: HT-Brr1, full-length Brr1 with N-terminal HT-tag (natural protein, S. cerevisiae, UniProt Q99177 1-341, looked up)
chain: B1 chain
B3: F/E/G (SmF/SmE/SmG subcomplex, HT-tags removed) (complex, S. cerevisiae)
chain 1: T1 sequence (looked up) 3
chain 2: T1 sequence (looked up) 4
chain 3: T1 sequence (looked up) 5
B4: D3/B (SmD3/SmB subcomplex, HT-tag removed) (complex, S. cerevisiae)
chain 1: MSKIQVAHSSRLANLIDYKLRVLTQDGRVYIGQLMAFDKHMNLVLNECIEERVPKTQLDKLRPRKDSKDGTTLNIKVEKRVLGLTILRGEQILSTVVEDKPLLSK
chain 2: MTMNGIPVKLLNEAQGHIVSLELTTGATYRGKLVESEDSMNVQLRDVIATEPQGAVTHMDQIFVRGSQIKFIVVPDLLKNAPLFKKNS
B5: D1/D2 (SmD1/SmD2 subcomplex, HT-tag removed) (complex, S. cerevisiae)
chain 1: T1 sequence (looked up) 1
chain 2: T1 sequence (looked up) 2
B6: Lot5ΔC, Lot5 (residues 1–227), as used in GFC (domain or fragment, S. cerevisiae, UniProt P34234 1-227, looked up)
chain: MMKKKPKCQIARTKPSVENVIPYNQFKKTQPRFNGNFSALNNEEYIILFGGGRDLILGSLTPCSSSHLSNQANPQDTSEYGTDLFILNSCIIIWFNGLGYGLEIPYSSVLYHASRRLPDGREGLQLEILLTLERDEVLDMLYQSLAPQACEFDGEEAHAFTVRSVELTIRPKYSIYDRHYNNEIETLFTFENFGVNRGDDLVNNCNEALAVCMDLHGEDVQDQDQEQ
B7: HT-Lot5ΔC, Lot5 (residues 1–227) with N-terminal HT-tag (domain or fragment, S. cerevisiae, UniProt P34234 1-227, looked up)
chain: B6 chain
B8: Umini-snRNA (structured_RNA)
RNA: GGGAAGUGUUACAGCUCUUUUAGAAUUUUUGGAGUAGGCUUUCUGGCUUUUCACCGGAAAGCCCCU

Tests used:
[1] = biological target: T1, D1/D2/F/E/G pentamer (5Sm); experiment: SEC
[2] = biological target: T1, D1/D2/F/E/G pentamer (5Sm); experiment: pull-down
[3] = biological target: T2, Brr1Δ(122-197) with N-terminal HT-tag; experiment: pull-down
[4] = biological target: B2; experiment: pull-down
[5] = biological target: B1; experiment: SEC
[6] = biological target: B7; experiment: pull-down
[7] = biological target: T3, full-length Lot5 with N-terminal HT-tag; experiment: pull-down
[8] = biological target: B6; experiment: SEC
[9] = biological target: T1, D1/D2/F/E/G pentamer (5Sm); experiment: pull-down; remark: listed apart in the source
[10] = biological target: SmD1 (1-109);SmD2;SmF;SmE;SmG;SmD3 (1-88);SmB (1-105) (Saccharomyces cerevisiae;Saccharomyces …, UniProt Q02260;Q06217;P54999;Q12330;P40204;P43321;P40018 …, ||||||); experiment: EMSA
[11] = biological target: SmD1 (1-109);SmD2;SmF;SmE;SmG;Brr1 (Saccharomyces cerevisiae;Saccharomyces …, UniProt Q02260;Q06217;P54999;Q12330;P40204;Q99177 1-109;1-110;1-86;1-94;1-77;1-341, |||||); experiment: EMSA
[12] = biological target: SmD1 (1-109);SmD2;SmF;SmE;SmG (Saccharomyces cerevisiae;Saccharomyces …, UniProt Q02260;Q06217;P54999;Q12330;P40204 1-109;1-110;1-86;1-94;1-77, ||||); experiment: EMSA

B1
binding result [1]: binds

B2
binding result [2]: binds

B3
binding result [3]: binds | binding result [4]: binds | binding result [5]: binds

B4
binding result [6]: binds | binding result [7]: binds | binding result [8]: binds

B5
binding result [6]: binds | binding result [7]: binds | binding result [8]: binds

B6
binding result [1]: binds

B7
binding result [9]: binds

B8
binding result [10]: binds | binding result [11]: binds | binding result [12]: binds
